Results as given in PMC3351694 (Virology, 2012).
Where two headings read alike, the source gives them in different places.

Legend:
Assay in all cases: SEC
[1] = target: T1, bacteriophage P22 coat protein (bacteriophage P22, UniProt P26747 1-430)
[2] = target: T1, bacteriophage P22 coat protein; remark: listed apart in the source
[3] = target: T1, bacteriophage P22 coat protein; remark: listed apart in the source

T1 sequence (P26747 whole entry): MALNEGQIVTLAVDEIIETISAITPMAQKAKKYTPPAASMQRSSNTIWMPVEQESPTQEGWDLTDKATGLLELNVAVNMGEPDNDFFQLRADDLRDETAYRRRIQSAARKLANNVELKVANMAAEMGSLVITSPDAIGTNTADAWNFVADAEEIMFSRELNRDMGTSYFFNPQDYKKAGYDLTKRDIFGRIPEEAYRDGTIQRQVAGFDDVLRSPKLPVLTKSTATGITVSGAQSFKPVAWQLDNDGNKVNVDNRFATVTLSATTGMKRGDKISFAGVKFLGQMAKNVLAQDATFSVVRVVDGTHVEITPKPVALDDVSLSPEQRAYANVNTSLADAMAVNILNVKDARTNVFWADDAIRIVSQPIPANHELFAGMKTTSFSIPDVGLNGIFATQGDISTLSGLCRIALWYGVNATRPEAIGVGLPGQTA

B1: bacteriophage P22 scaffolding protein (natural protein, UniProt P26748 1-303, looked up)
chain: MEPTTEIQATEDLTLSGDHAAASADSLVVDNANDNAGQEEGFEIVLKDDETAPKQDPAKNAEFARRRIERKRQRELEQQMEAVKRGELPESLRVNPDLPPQPDINAYLSEEGLAKYDYDNSRALAAFNAANTEWLMKAQDARSNAVAEQGRKTQEFTQQSAQYVEAARKHYDAAEKLNIPDYQEKEDAFMQLVPPAVGADIMRLFPEKSAALMYHLGANPEKARQLLAMDGQSALIELTRLSERLTLKPRGKQISSAPPADQPITGDVSAANKDAIRKQMDAAASKGDVETYRKLKAKLKGIR
- stoichiometry N [1]: ~360 scaffolding protein sites per PC
- 1/KS (dissociation constant of scaffolding protein for PC), Snum 300 [2]: 0.77 ± 0.7 µM
- 1/KS (dissociation constant of scaffolding protein for PC), Snum 360 [2]: 1.29 ± 0.95 µM
- 1/KS (dissociation constant of scaffolding protein for PC), Snum 420 [2]: 1.88 ± 1.25 µM
- midpoint of the binding fit (K's, input S/C ratio) [3]: 0.88 input S/C molar ratio
- stoichiometry N [3]: 294 ± 33 scaffolding proteins per PC
